Stoichiometry N (Acl4 per RpL4) data for one substance are collected here from PMC5296656.

This experiment concerns the target RpL4 (as it stands in the Acl4·RpL4 complex) (not stated (S. cerevisiae or C. thermophilum cDNA cloned)). Kind of experiment: SEC; Superdex 200 10/300 GL, 20 mM TRIS pH 8.0, 100 mM NaCl, 5 mM DTT; pre-incubation 1 h at 4 °C; fractions on SDS-PAGE, Coomassie.

“Acl4 (untagged, purified) (natural protein)” registered a stoichiometry N (Acl4 per RpL4) of 2.
